Test results from US20250339569A1 (3B PHARMACEUTICALS, published 2025).
Starred links: 1 amine or outer side, 2 acyl side, 3 side chain; linkers in the order of their positions; H or OH if unused. Positions of bridges follow the written chain, without caps; N, C: chain ends. Non-standard residues stand in square brackets, D forms with d. Primed or numbered codes have the meaning given here. *: point of attachment. Aph(4SaPy2Ac) = 4-amino-L-phenylalanine, ring amine acylated by (4-sulfamoyl-pyrazol-1-yl)-acetic acid, NS(=O)(=O)c1cnn(CC(=O)Nc2ccc(C[C@H](N[*:1])C(=O)[*:2])cc2)c1; Ttds(4) = 1,13-diamino-4,7,10-trioxatridecan-succinamic acid spacer, O=C(CCC(=O)[*:2])NCCCOCCOCCOCCCN[*:1]; 111In‑DOTA = O=C([O-])CN1CCN(CC(=O)[O-])CCN(CC(=O)*)CCN(CC(=O)[O-])CC1.[111In+3]; Phe(3-NHCO(CH2)3SO2NH2) = N[C@@H](Cc1cccc(NC(=O)CCCS(N)(=O)=O)c1)C(=O)O; DOTA = O=C(O)CN1CCN(CC(=O)O)CCN(CC(=O)*)CCN(CC(=O)O)CC1; Biotin = O=C1N[C@H]2[C@H](CS[C@H]2CCCCC(=O)*)N1; PPAc = 4-carboxymethyl piperazine linker; mXylylene = c1cc(C[*:1])cc(C[*:2])c1; APAc = not defined here; Dap = NC[C@H](N)C(=O)O

Experiments:
[1] = target: T1, human carbonic anhydrase IX (CAIX) (human, UniProt Q16790 38-459); experiment: FACS competition, HT-29 cells, tracer 3BP-4149; pIC50 category C: 6.1-7.0
Experimental: (§1) CAIX-expressing human HT-29 colorectal cancer cells (DSMZ, RRID: CVCL_0320) were cultured in McCoys's 5A modified medium (Biochrom, #F1015) including 10% fetal calf serum (FCS), 2 mM L-glutamine, 100 U/ml penicillin and 100 μg/mL streptomycin. Cells were detached with Accutase (Biolegend, #423201) and washed in FACS buffer (PBS including 1% FCS). Cells were diluted in FACS buffer to a final concentration of 500.000 cells per ml. 200 μL of the cell suspension were transferred to a u-shaped non-binding 96-well plate (Greiner) and cells were washed in ice-cold FACS buffer.
(§2) When biotinylated compounds were used an additional incubation step with 1 μg/mL APC-Streptavidin (Miltenyi; #130-106-791) in 50 μL FACS buffer for 30 minutes on ice was performed.
(§3) Cells were washed twice with ice-cold FACS buffer and analyzed in an Attune NxT flow cytometer (Thermo Fisher). Median fluorescence intensities (MFI) of the APC/Cy5-channel were calculated by Attune NxT software.

[2] = target: human carbonic anhydrase 9 (CAIX) (human, UniProt Q16790 38-459); experiment: FACS binding assay on CAIX-expressing HT-29 cells, biotinylated compound detected with APC-streptavidin; pEC50 category (A = pEC50 >8.0)
Experimental: as §1, §2, §3

[3] = target: T2, canine carbonic anhydrase 9 (CAIX) (dog); experiment: radioligand saturation binding on CHO cells with dog CAIX, 8 h at 37 C
T2 construct: also called dog CAIX; dgCAIX
T2 sequence (chain, as listed by the source limits assumed): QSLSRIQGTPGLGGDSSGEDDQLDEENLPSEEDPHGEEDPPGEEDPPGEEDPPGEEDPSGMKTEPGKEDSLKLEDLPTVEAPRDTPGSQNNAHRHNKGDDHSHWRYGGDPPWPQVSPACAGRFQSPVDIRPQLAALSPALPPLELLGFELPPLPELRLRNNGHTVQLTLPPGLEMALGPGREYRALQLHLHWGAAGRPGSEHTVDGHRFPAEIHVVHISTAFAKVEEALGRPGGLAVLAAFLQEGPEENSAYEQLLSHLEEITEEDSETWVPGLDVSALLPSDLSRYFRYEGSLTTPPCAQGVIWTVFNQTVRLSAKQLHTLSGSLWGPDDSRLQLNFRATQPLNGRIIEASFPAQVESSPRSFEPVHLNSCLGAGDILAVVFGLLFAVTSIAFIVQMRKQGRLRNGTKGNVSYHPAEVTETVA
Experimental: The radioligand saturation binding on CHO-huCAIX and dgCAIX was determined as follows. […] To determine total binding, 700 μL of binding medium and 100 μL of the radioligand dilutions were added to the wells in triplicates. […] The plates were incubated for 8 h at 37° C. under standard cell culture conditions (5% CO2). At the end of the incubation time the plates were placed on ice while aspirating the radioligand solutions. Aliquots of the 20 nM supernatants were transferred to HPLC vials for analysis of radioligand stability over the incubation time. Subsequently, the cells were washed with ice-cold PBS (0.5 mL, 1 mL, 1 mL). 300 μL of RIPA buffer containing PIC was added to each well and the plates were placed on a shaker for 10 min at ambient temperature. 200 μL of the cell lysate of each well was transferred to gamma-counting tubes. Their associated radioactivity was counted using a gamma counter and normalized to the measured protein concentration of each well (see chapter 6.3.7 BCA protein assay). An aliquot of each radioligand dilution was included in the gamma counter measurements to allow for determination of the actual radioligand concentrations in the dilution series.

[4] = target: T3, Fc-fusion protein of human carbonic anhydrase IX (human, UniProt Q16790 38-414); experiment: SPR, CAIX; pKD category A: >8.0
Experimental: Stock solutions of test compounds were prepared by dissolving each compound in DMSO. DMSO stock solution were diluted 1:1000 in Running Buffer without DMSO. […] SPR binding analyses were performed in Single Cycle Kinetic (SCK) mode at 25° C.
(§4) For each test compound, SPR raw data in the form of resonance units (RU) were plotted as sensorgrams using the Biacore™ T200 control software. The signal from the blank sensorgram was subtracted from that of the test compound sensorgram (blank corrected). The blank corrected sensorgram was corrected for baseline drift by subtracting the sensorgram of a SCK run without the test compound (running buffer only). […] Raw data and fit results were imported as text files in IDBS. The pKD value (negative decadic logarithm of dissociation constant) was calculated in the IDBS excel template.

[5] = target: T3, Fc-fusion protein of human carbonic …; experiment: SPR, captured hCAIX-Fc; pKD category A: >8.0
[6] = target: T4, human carbonic anhydrase IV (CAIV), biotinylated (human, UniProt P22748 19-283, limits assumed, biotinylated); experiment: SPR, biotinylated CAIV captured (Biotin CAPture)
T4 construct: Bought (SinoBiological, Cat # printed 10472-1H081H); also called hCAIV-bio
Description: as §4

[7] = target: T5, human carbonic anhydrase XII (CAXII), biotinylated (human, UniProt O43570 25-301, biotinylated); experiment: SPR, biotinylated CAXII captured (Biotin CAPture)
T5 construct: Bought (SinoBiological Cat #10617-H08H); also called hCAXII-bio
Description: as §4

[8] = target: T6, human carbonic anhydrase XIV (CAXIV), biotinylated (human, UniProt Q9ULX7 16-290, biotinylated); experiment: SPR, biotinylated CAXIV captured (Biotin CAPture)
T6 construct: Bought (SinoBiological Cat #10458-H08H); also called hCAXIV-bio
Description: as §4

[9] = target: T3, Fc-fusion protein of human carbonic …; experiment: SPR, captured hCAIX-Fc; t1/2 category A: >15.0 min
[10] = target: T1, human carbonic anhydrase IX (CAIX); experiment: FACS competition, HT-29 cells, tracer 3BP-2776; pIC50 category A: >8.0
Experimental: as §1, §2, §3

[11] = target: T7, canine carbonic anhydrase 9 (CAIX) (dog); experiment: radioligand binding, 111In-labeled compound, CHO cells with dog CAIX; pKD category A: >8.0
T7 construct: On transfected CHO-VGT cells; also called dog CAIX
T7 sequence (chain, as listed by the source limits assumed): as above
Experimental: CHO-VGT cells were transfected with the human, dog, and mouse CAIX (InSCREENex GmbH) and cultured in Ham's F-12 medium (Sigma-Aldrich #N4888) supplemented with 10% fetal bovine serum (FCS), 2 mM L-glutamine, 100 U/mL Penicillin, and 0.1 mg/mL streptomycin. […] Cell concentrations were adjusted to 3×10⁵ mL⁻¹, and 1.000 μL of the suspension per well were dispensed into flat-clear-bottom 24 well plates.
Approximately 24 hours after re-seeding, the medium was aspirated and the cells were washed once with 1000 μL assay medium (Ham's medium without additives). To determine total binding, 700 μL of assay medium and 100 μL of the radioligand dilutions were added to the wells in triplicates. To determine non-specific binding, 600 μL of binding medium, 100 μL of the radioligand dilutions and 100 μL of a blocking solution containing 8 μM non-labeled compound were added to the wells in triplicates. […] An aliquot of each radioligand dilution was included in the gamma counter measurements to allow for determination of their actual concentrations via their known specific activity.

[12] = target: T8, murine carbonic anhydrase 9 (CAIX) (mouse, UniProt Q8VHB5 32-437); experiment: radioligand binding, 111In-labeled compound, CHO cells with mouse CAIX; pKD category B: 7.1-8.0
T8 construct: On transfected CHO-VGT cells; also called mouse CAIX
T8 sequence (Q8VHB5 32-437 limits assumed): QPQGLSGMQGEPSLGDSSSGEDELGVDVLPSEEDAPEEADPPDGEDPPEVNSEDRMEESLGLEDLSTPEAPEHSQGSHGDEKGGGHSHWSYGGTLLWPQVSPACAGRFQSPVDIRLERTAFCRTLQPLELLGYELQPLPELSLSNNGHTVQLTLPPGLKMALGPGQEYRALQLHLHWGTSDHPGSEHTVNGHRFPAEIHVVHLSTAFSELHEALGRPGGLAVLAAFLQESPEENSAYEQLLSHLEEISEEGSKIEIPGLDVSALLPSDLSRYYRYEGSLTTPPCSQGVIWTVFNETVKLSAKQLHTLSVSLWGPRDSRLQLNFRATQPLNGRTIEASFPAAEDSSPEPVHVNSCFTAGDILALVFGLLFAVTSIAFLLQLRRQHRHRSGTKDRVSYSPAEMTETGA

T6 sequence (Q9ULX7 16-290 limits assumed): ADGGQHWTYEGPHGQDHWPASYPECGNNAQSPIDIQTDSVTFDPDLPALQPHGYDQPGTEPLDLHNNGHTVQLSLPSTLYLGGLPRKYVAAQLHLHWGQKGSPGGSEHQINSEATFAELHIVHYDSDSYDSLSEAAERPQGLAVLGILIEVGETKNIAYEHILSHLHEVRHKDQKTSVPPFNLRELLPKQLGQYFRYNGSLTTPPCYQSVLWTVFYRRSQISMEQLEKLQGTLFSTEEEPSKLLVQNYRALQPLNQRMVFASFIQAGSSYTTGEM
T5 sequence (O43570 25-301 limits assumed): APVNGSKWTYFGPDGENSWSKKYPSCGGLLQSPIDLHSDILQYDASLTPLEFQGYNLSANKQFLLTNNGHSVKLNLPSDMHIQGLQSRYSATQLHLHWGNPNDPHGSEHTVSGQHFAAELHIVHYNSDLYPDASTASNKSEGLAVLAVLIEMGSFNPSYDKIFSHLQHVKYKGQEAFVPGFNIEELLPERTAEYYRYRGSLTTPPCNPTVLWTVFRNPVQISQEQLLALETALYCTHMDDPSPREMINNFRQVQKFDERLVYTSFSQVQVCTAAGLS
T4 sequence (P22748 19-283 limits assumed): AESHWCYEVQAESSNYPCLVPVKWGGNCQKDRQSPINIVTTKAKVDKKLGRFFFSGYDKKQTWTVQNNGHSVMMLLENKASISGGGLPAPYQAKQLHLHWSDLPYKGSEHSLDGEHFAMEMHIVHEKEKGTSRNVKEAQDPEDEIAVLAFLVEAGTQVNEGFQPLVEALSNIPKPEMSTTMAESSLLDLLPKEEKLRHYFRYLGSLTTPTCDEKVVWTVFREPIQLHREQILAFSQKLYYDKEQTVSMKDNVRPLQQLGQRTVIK

B1: 3BP-4482 (peptide)
peptide: {DOTA-PPAc}-QCE[dP]D[Aph(4SaPy2Ac)]LTWSC-NH2
modifications: linker 2-11 via mXylylene
pIC50 [1]: 6.1 to 7 pic50

B2: 3BP-2778: H-Met-Arg-[Cys(3MeBn)-Glu-Ile-Trp-Val-Asp-Gly-Trp-Val-Asp-Cys]-Ttds-Lys(Bio)-NH2 (peptide)
peptide: H-MRCEIWVDGWVDC[Ttds(4)]K(Biotin)-NH2
modifications: linker 3-13 via mXylylene
SMILES: CC[C@H](C)[C@@H]1NC(=O)[C@H](CCC(=O)O)NC(=O)[C@@H](NC(=O)[C@H](CCCNC(=N)N)NC(=O)[C@@H](N)CCSC)CSCc2cccc(c2)CSC[C@@H](C(=O)NCCCOCCOCCOCCCNC(=O)CCC(=O)N[C@@H](CCCCNC(=O)CCCC[C@@H]2SC[C@@H]3NC(=O)N[C@@H]32)C(N)=O)NC(=O)[C@H](CC(=O)O)NC(=O)[C@H](C(C)C)NC(=O)[C@H](Cc2c[nH]c3ccccc23)NC(=O)CNC(=O)[C@H](CC(=O)O)NC(=O)[C@H](C(C)C)NC(=O)[C@H](Cc2c[nH]c3ccccc23)NC1=O
notes: Cyclic peptide, biotinylated
pEC50 [2]: > 8 pec50

B3: [111In]In-DPI-4452: 111In-DOTA-PPAc-Q-[C(3MeBn)-EPD-Af3(Cpsu)-LTWSC]-NH2 (peptide)
peptide: {DOTA-PPAc}-QCE[dP]D[Phe(3-NHCO(CH2)3SO2NH2)]LTWSC-NH2
modifications: linker 2-11 via mXylylene; also: 111In complexed in DOTA
notes: also called 111In-3BP-4452; In-111-labeled DPI-4452
pKd [3]: ≥ 9

B4: 3BP-2776: H-Met-Val-Tyr-[Cys(3MeBn)-Glu-Gly-Asp-Trp-Leu-Thr-Trp-Gln-Cys]-Ttds-Lys(Bio)-NH2 (peptide)
peptide: H-MVYCEGDWLTWQC[Ttds(4)]K(Biotin)-NH2
modifications: linker 4-13 via mXylylene
SMILES: CSCC[C@H](N)C(=O)N[C@H](C(=O)N[C@@H](Cc1ccc(O)cc1)C(=O)N[C@H]1CSCc2cccc(c2)CSC[C@@H](C(=O)NCCCOCCOCCOCCCNC(=O)CCC(=O)N[C@@H](CCCCNC(=O)CCCC[C@@H]2SC[C@@H]3NC(=O)N[C@@H]32)C(N)=O)NC(=O)[C@H](CCC(N)=O)NC(=O)[C@H](Cc2c[nH]c3ccccc23)NC(=O)[C@H]([C@@H](C)O)NC(=O)[C@H](CC(C)C)NC(=O)[C@H](Cc2c[nH]c3ccccc23)NC(=O)[C@H](CC(=O)O)NC(=O)CNC(=O)[C@H](CCC(=O)O)NC1=O)C(C)C
notes: Cyclic peptide, biotinylated
pEC50 [2]: > 8 pec50

B5: 3BP-2777: H-Met-Val-Tyr-[Cys(3MeBn)-Glu-Gly-Ser-Trp-Leu-Gly-Trp-Ser-Cys]-Ttds-Lys(Bio)-NH2 (peptide)
peptide: H-MVYCEGSWLGWSC[Ttds(4)]K(Biotin)-NH2
modifications: linker 4-13 via mXylylene
SMILES: CSCC[C@H](N)C(=O)N[C@H](C(=O)N[C@@H](Cc1ccc(O)cc1)C(=O)N[C@H]1CSCc2cccc(c2)CSC[C@@H](C(=O)NCCCOCCOCCOCCCNC(=O)CCC(=O)N[C@@H](CCCCNC(=O)CCCC[C@@H]2SC[C@@H]3NC(=O)N[C@@H]32)C(N)=O)NC(=O)[C@H](CO)NC(=O)[C@H](Cc2c[nH]c3ccccc23)NC(=O)CNC(=O)[C@H](CC(C)C)NC(=O)[C@H](Cc2c[nH]c3ccccc23)NC(=O)[C@H](CO)NC(=O)CNC(=O)[C@H](CCC(=O)O)NC1=O)C(C)C
notes: Cyclic peptide, biotinylated
pEC50 [2]: > 8 pec50

B6: 3BP-4503 (peptide)
peptide: {DOTA}-ECE[dP]D[Phe(3-NHCO(CH2)3SO2NH2)]LTW[Dap]C-NH2
modifications: lactam 1-10; linker 2-11 via mXylylene
notes: also called DPI-4503
pKD [4]: > 8 pkd | pKD [5]: > 8 pkd | pKD [6]: < 6 pkd | pKD [7]: < 6 pkd | pKD [8]: < 6 pkd | t1/2 (half-life of the complex, SPR) [9]: > 15 min | pIC50 [10]: > 8 pic50

B7: 111In-3BP-4452 (peptide)
peptide: {111In‑DOTA-PPAc}-QCE[dP]D[Phe(3-NHCO(CH2)3SO2NH2)]LTWSC-NH2
modifications: linker 2-11 via mXylylene
notes: also called [111In]In-DPI-4452
pKD [11]: > 8 pkd | pKD [12]: 7.1 to 8 pkd

B8: 3BP-3583 (peptide)
peptide: {DOTA-APAc}-VYCE[dP]DWLTWSC-NH2
modifications: linker 3-12 via mXylylene; reading uncertain
pKD [4]: > 8 pkd | pKD [5]: > 8 pkd | pKD [6]: < 6 pkd | pKD [7]: < 6 pkd | pKD [8]: < 6 pkd | t1/2 (half-life of the complex, SPR) [9]: > 15 min
